Source: patent publication US20190241648A1 (STATEN BIOTECHNOLOGY B V, published 2019)

B1: 12G8 scFv (scFv, V domains shown)
VH: QLQLVESGGGLVQPGGSLRLSCAASGFTFDDYAMSWVRQAPGKGLEWVSAIRWNGDTYYAESMKGRFDMSRDNAKNTLYLQMNSLKSEDTAVYYCAKHRPGGALDTWGQGTLVTVSS
VL: QAVLTQPSAVSVSLGQTARITCQGGNFGNFYASWYQQKPGQAPVLVIYKDSERPSGIPERFSGSSSGDTATLTISGAQAEDEADYYCQSGSSSDNVVFGGGTHLTVL
notes: scFv (crude periplasmic extract) with C-terminal c-myc tag
B2: 12D7 scFv (scFv, V domains shown)
VH: ELQLVESGGDLVQPGGSLRLSCAASGFTFDDYAMSWVRQAPGKGLEWVSAITSNGKRTDYAESMKGRFTISRDNSKNTLYLEMNSLKSEDTAVYYCTKGPPHYIPIPSMTPRDSWGQGTQVTVSS
VL: SSALTQPSAVSVSLGQTARITCQGGTLGRYYGSWYQQKPAQAPVLLIYGDNSRPSGIPERFSGSKSGDTATLTISGTQAEDEADYYCESFDFSGNAAVFGGGTHLTVL
notes: as for B1

Molecular target: T1, human ApoC3 (huApoC3), native protein purified from human serum (human, UniProt P02656 21-99)
T1 construct: Athens Research and Technology; randomly biotinylated in some assays; also called Apolipoprotein C3
Test: ELISA, biotinylated huApoC3 captured on neutravidin, scFv periplasmic extract
Protocol: The antibody clones selected from the scFv phage display library constructed in Example 1 were analyzed by a ELISA assay with biotinylated ApoC3 captured by […] which was coated on plates. Neutravidin (Fisher Scientific LDAcat#: W9995L) diluted in PBS (pH 7.4) at a concentration of 2-5 μg/ml (100 μl/well) was incubated in Microtiter Immunoassay Maxisorp 96-well plates (NUNC cat#:1456537 or similar) at 4° C. overnight. The coated plates were washed three times with 250 μl/well PBS-T to remove the excess of the unbound neutravidin. After washing, 250 μl 1% (m/v) of casein solution prepared in PBS was added to each coated well for blocking, and the plates were incubated for 1 to 2 hours at room temperature on a plate shaker (TitraMax 1000, Heidolph or similar). After blocking, the plates were washed three times to remove the excess of the blocking solution with 250 μl/well PBS-T. Biotin groups were introduced at random sites of human native ApoC3 protein (Athens Research and Technology). […] The absorbance of the end-product is measured at 450 nm using a Microplate spectrophotometer.

T1 sequence (P02656 21-99): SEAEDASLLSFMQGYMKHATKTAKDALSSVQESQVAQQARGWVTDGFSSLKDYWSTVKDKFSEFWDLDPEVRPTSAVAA

binding result | Binder
binds | B1
binds | B2
